Assay: soluble on expression in E. coli; label from the status in PepcDB or PDB records
In the case of “MQAKPQIPKDKSKVAGYIEIPDADIKEPVYPGPATPEQLNRGVSFAEENESLDDQNISIAGHTFIDRPNYQFTNLKAAKKGSMVYFKVGNETRKYKMTSIRDVKPTDVGVLDEQKGKDKQLTLITCDDYNEKTGVWEKRKIFVATEVK”, the “soluble on expression in E. coli” value was “soluble”. In the case of “MSSPDSAAHQFSICRVCDDSNGQPHYGTICCPSCKGFFRRVYMSDKKFECYRGNMCVIQKGTRNICRACRYKKCLQVGMNVKGSTTRHNLRINIYVQTSAESTPKSSKDTEMGVAEAMEMAQVYMNLEKYCENNYCESNMCREEENRLIDRMLSSTVHELIQKTSPQCPRFKRDWKPLEMLNLENFCRSWSRSIVHFLDFATRFPVFNQLSHIDKRAWFISRLAPCSFLTMAYQTRIEMCEGLLFGCSNVFPLKSDRWIAVETEHLRGLFSSITETMFSFVIYPMMNLKITDLHYSLLKACVFFSAGIVVTSVSDKGMEIMRNEYTKHKNALMKLLMNGVERFSQQTDILFQIQDVQNTLEHHKHLKSQQI”, the “soluble on expression in E. coli” value was “soluble”. For “MKKTAIAIAVALAGFATVAQAEVKLHESGAGLVKPGASVEISCKATGYTFSSFWIEWVKQRPGHGLEWIGEILPGRGRTNYNEKFKGKATFTAETSSNTAYMQLSSLTSEDSAVYYCATGNTMVNMPYWGQGTTVTVSSASTKGPSVFPLAPSSKSTSGGTAALGCLVKDYFPEPVTVSWNSGALTSGVHTFPAVLQSSGLYSLSSVVTVPSSSLGTQTYICNVNHKPSNTKVDKKVEPKSCSAWSHPQFEK”, the “soluble on expression in E. coli” value was “soluble”. In the case of “MAHHHHHHSLEYNLTTTDVVMENVTAFWEEGFSKLFEKAKENNNNRKISNCDTSLFFSNLLLGTPVLKDISFKIERGQLLAVAGSTGAGKTSLLMMIMGELEPSEGKIKHSGRISFCSQYSWIMPGTIKDNIIFGVSYDEYRYRSVIKACQLEEDISKFSEKDNIVLGEGGITLSGGQRARISLARAVYKDADLYLLDSPFGYLDVLTEKEIFESCVCKLMANKTRILVTSKMEHLKKADKILILHEGSVYFYGTFSELQNQRPDFSSKLMGCDTFDQFTAERRNSIITETLRRFSLEGDTSV”, the “soluble on expression in E. coli” value was “soluble”. With “MLFRVRSETDSQPPFACLNDIKLFDTDNIGRGINAAILNGTTGDIIEKATFDVTASDEKLMTWLLKVPHASLLVAASFGDVAEHVSRQSRQLFAAFGAQKIDNWRVGNAYAIIGQRGIRRGEAHETVAKFLEENTQQKLFEGCFDLPIAEIGGEVELKIDGPPVHRADESKLAELGAFEADLLQQNKDVEYGGKWKNCGMDRPCNEADTIPVHFFSGEHKDDHPKMCIGGRMLFDKDLNSAGRGLNLAMLEPKTGKVTAVAHFDTYEDESHGLEEWLDAVPTGYIVAVVSFDEASNQLSDMARRIFYEMGSSMIDRLKFRASWYFVGQKGIGAYTPFEDLNIPQGNNWANPIHTSFCLPKSLHKWAGRRDTSSSMTSSASNDVRNLPKRHFCAKYDRHEEFCGAANLDSPIMPRHLSDEQRSSDAIFNVPILVASGLAPDSLRITLESLLNQEGLNTQMVLVTYDKEYSENADLVSLFHVKSVAIQSNGSYNGRKTSWKSEEIAENPMKIDRKPPGGLGNQKFVFLGHQFF” the “soluble on expression in E. coli” value was “not soluble”. In the case of “MGSDKIHHHHHHMPFDDIQCSPLLVRDGTDNIMQVLSDTDKPTASAQRDMPQEFLPPRCTFSAEDWRILARQWYPVARSVDVKSSPVAVTLLDLELVTYRTPAGVHVARDLCPHRGVPLSMGCVEGDELVCAYHGLRYAADGQCRKIPAQPELKPSAKFRLTVFPAVERYGLVWTCLNPQGGEANLPPMPSWGDPLCQSILPPFVDIAGSAGRQVEGFVDVAHFAFVHHDAFADRNRPEVPMYQTEFTDFGLRTEYWSNVSNYPKALQHLAPDDFSWLRVYEIYPPFCARLTVHFPNEGRLNILNAASPVSARKTRLFVPITRNFDTTGSLDDVYAFNAQIFAEDQAIVERQRPEDLPLDMQAEAHFAADRTSVGYRRLLREMGLTMAYAG”, the “soluble on expression in E. coli” value was “not soluble”. For “MIDWDDLECRVAREESRHQAGIGTCSLALQIGFFFDGLKRNINVDEESQRLTNVGRLFRAHSFEIKASLTSAYSSAKIYVPGLGTLLDDTPSERLDSILDARQQALPEDYADALVEQGKETAVDTVKGVFKEDWSQVLSNKLGDLVTMKSGFDATVSAAKKAATRALLEATEPIRDNPIVAELLMTGVDARVDLAKNKFKESIVLSKKENQLPIKLVQISVFGADLGAALARRFIDELLESVCTKVGNEYRYEDSKVEVIFAGLFDCTRRSSMDMGDTVATISDGAGLVARHPVVGLITTAFGAKVITFDKPLHPAVKKALHLIAAHERREYRPLLPLGPLRSGWREVLCPGISEDVTGGLLPDEQRPSAELCRVPLRQMYETARRAQVPFPNFSILDAKNPRVAQYFIMQDSRLGYSAKKYSEYYSKWVGKMNPTPEAFELHMIHYCFWLGEKLHDYKILRQNVSGSERDKLNAQWGWLIQVGRDAENVLRSRGLSRQMYRGADLVKFFNGIKRVPREADIFFNYFMHDFTSEELKFATLNEQANTMLRNNNFFVPRGIEILAVDDEAAALEHHHHHH”, the “soluble on expression in E. coli” value was “soluble”. For “MSEIVIRHAETRDYEAIRQIHAQPEVYCNTLQVPHPSDHMWQERLADRPGIKQLVACIDGDVVGHLTIDVQQRPRRSHVADFGICVDSRWKNRGVASALMREMIEMCDNWLRVDRIELTVFVDNAPAIKVYKKFGFEIEGTGKKYALRNGEYVDAYYMARVK”, the “soluble on expression in E. coli” value was “not soluble”. In the case of “MGSDKIHHHHHHVSQLTPWQHYQQDLTRDDFSHDAAQEQAVKSLQRVYDELIVAAKPASSVSKLFSAIGIKSTPTPVKGLYLWGGVGRGKTYLMDTFFDALPTDRKLRAHFHRFMHQIHNDLGELKGVQDPLLTIAKKMASQYQIICFDEFFVSDITDAMLLGTLFQALFKEGVALVATSNIIPDELYKNGLQRVRFLPAIALINQHCEILNVDSGIDYRLRTLEQAEIYHYPLDEQADINLLHYFDQLAPESEKLTAPIDVDGRAIRIRQQSQGVLLINFRDLCDGPRSQRDYMEMACLYHTVLVSGLEQMGSQQTGDDIARRFLAMVDEFYERNVKLIISAQVELEHIYTDGQLNFEFRRCRSRLIEMQSREYLALEHLP”, the “soluble on expression in E. coli” value was “not soluble”. With “LALIAGTGALPEELVARLSEPPLVCAMEGFAPERLAVDIPFPIEHLGSLVADLKARGVSEICLAGAVGRPAVDPARIDAATLPLVPVIQQALTSGDDGALRAVMGIFENAGLTVRAAHEIAPDLLMPAGCPTKAQPEPAELADARRGAEIVAAMSAADIGQACVVHRGQALAVESVFGTNWMLGSLGQRPDAGGGVLFKAPKPDQDRRADLPTIGPDT” the “soluble on expression in E. coli” value was “not soluble”. In the case of “MSLENISQKYSCSIVPLAEKKIFSVNDGLNVILKSLEDTKAEDIVSIDIQGKSSLADYMVIASAHSQRHVSSVADHLLRTWKDSGYGRASVEGLTEGNWVLIDTGDIIIHLFRPEIRLFYNLEKMWLTPDLNNTKLALFGDH”, the “soluble on expression in E. coli” value was “not soluble”. For “GHMIQESTMEMTNAQRLILSNQYKMMTMLDPANAERYRRLQTIIERGYGLQMRELDREFGELKEETCRTIIDIMEMYHALHVSWSNLQDQQSIDERRVTFLGFDAATEARYLGYVRFMVNVEGRYTHFDAGTHGFNAQTPMWEKYQRMLNVWHACPRQYHLSANEINQIINA”, the “soluble on expression in E. coli” value was “soluble”. In the case of “MKFSVLTLFPQLVWPYFEDSILKRALEKNLFELEVLNLRDFSANKYQKADHTLIGGGAGQILDPEMVENALHSVKNPKHTIFLSAVGKPFKQTDAMRLAQKKHVVLVCGRYEGFDERSIELGADEVFCIGDFILTGGELGALCLIDSIARHIQGVLGNAQSLENESFENHYLEAPNFANAVFKSKEINKIPAPLEYSKGNHAKIKQLKLDLSKLRTKFYRLDLFKQHKSLEHHHHHH”, the “soluble on expression in E. coli” value was “not soluble”. In the case of “GSTAMATTMEQEICAHSMTFEECPKCSALQYRNGFYLLKYDEEWYPEELLTDGEDDVFDPDLDMEVVFETQ”, the “soluble on expression in E. coli” value was “soluble”. In the case of “MSVVPVADVLQGRVAVDSEVTVRGWVRTRRDSKAGISFLAVYDGSCFDPVQAVINNSLPNYNEDVLRLTTGCSVIVTGKVVASPGQGQQFEIQASKVEVAGWVEDPDTYPMAAKRHSIEYLREVAHLRPRTNLIGAVARVRHTLAQALHRFFNEQGFFWVSTPLITASDTEGAGEMFRVSTLDLENLPRNDQGKVDFDKDFFGKESFLTVSGQLNGETYACALSKIYTFGPTFRAENSNTSRHLAEFWMLEPEVAFANLNDIAGLAEAMLKYVFKAVLEERADDMKFFAERVDKDAVSRLERFIEADFAQVDYTDAVTILENCGRKFENPVYWGVDLSSEHERYLAEEHFKAPVVVKNYPKDIKAFYMRLNEDGKTVAAMDVLAPGIGEIIGGSQREERLDVLDERMLEMGLNKEDYWWYRDLRRYGTVPHSGFGLGFERLIAYVTGVQNVRDVIPFPRTPRNASF”, the “soluble on expression in E. coli” value was “soluble”. For “SNKDLVHIGVLQYVEHPSLSATRKGFIEELKEEGYVDGKNIKIDYQNAQGDQSNLQTISQSLIEDNDVMLAIATPAAQSLSSLTKGKPILFTAVTDPVSAKLVKSMDNVGGNVTGTSDMSPINKQVELLKKVFPNTKKVGIMYTTSERNSEVQVEEAKKYFKEAGIETVIKGISSTNDIQDTAKSLMSQTEVIFIPTDNTIVSAINTLVDLSKETKVPVVGSDAGSVEKGVLFTYGTNYEALGRQTGKLAGRVLRGEKVKDIDAEYPKTLNVVVNHDMAKKLGIDVSSISDEESKVSTKDDKPIAK”, the “soluble on expression in E. coli” value was “not soluble”. In the case of “MKKIHPSAVIEEGAQLGDDVVIEAYAYVSKDAKIGNNVVIKQGARILSDTTIGDHSRVFSYAIVGDIPQDISYKEEQKSGVVIGKNATIREFATINSGTAKGDGFTRIGDNAFIMAYCHIAHDCLLGNNIILANNATLAGHVELGDFTVVGGLTPIHQFVKVGEGCMIAGASALSQDIVPFCLAEGNRASIRSLNLVGIRRRFDKDEVDRLSRAFKTLFRQGDLKENAKNLLENQESENVKKMCHFILETKRGIPVYRGKNNA”, the “soluble on expression in E. coli” value was “soluble”. With “MAHHHHHHMQLLHAQQEGMKNIRQSEASHSDENDKKERGTRSGSTTGTCSEFDVCAVYDDDDVPLAAQFVRSCPPLTDPSWAMEELLRINSHVAVWTGSALPNSVWALPGSGHCPFGSTDADFARIR” the “soluble on expression in E. coli” value was “not soluble”. In the case of “MKSHERGRVILVIDDTDCGRVAAERLVFMARAGFRGDVFVVFGKDIEISPIASYEKEMKIYTSLRVKASKFVEFYRERLEEAGLEVKQVKIILGNVSEEVLRLEKLLNPDLIVFGMEKRGFLKRLLRGDPYKEIIYETKAPVMVCKAGYERKDVDYEKIRCAKCVMG”, the “soluble on expression in E. coli” value was “not soluble”. In the case of “AHHHHHHGSKIKVGINGYGTIGKRVAYAVTKQDDMELIGVTKTKPDFEAYRAKELGIPVYAASEEFLPRFEKAGFEVEGTLNDLLEKVDIIVDATPGGMGEKNKQLYEKAGVKAIFQGGEKAEVAQVSFVAQANYEAALGKDYVRVVSCNTTGLVRTLNAIKDYVDYVYAVMIRRAADPNDIKRGPINAIKPSVTIPSHHGPDVQTVIPINIETSAFVVPTTIMHVHSIMVELKKPLTREDVIDIFENTTRVLLFEKEKGFESTAQLIEFARDLHREWNNLYEIAVWKESINVKGNRLFYIQAVHQESDVIPENIDAIRAMFEIAEKWESIKKTNKSLGILK”, the “soluble on expression in E. coli” value was “soluble”. In the case of “MAKLYFYYSAMNAGKTTTLLQSAHNYRERGMRTLILTPKLDHRAGSGVVASRIGLRADGRIFERDTELQQLVERDIHNDGALHCVLVDEAQFLSRAQVWQLSEVVDRLRIPVLCYGLRTDFRGELFEGSQFLLAWADELEEIKTICHSGSKATMTVRVDAHGHAVQDGPQVEIGGNERYVSVSRAEFKKIMRGEGRIDPLQIALPLPVALEHHHHHH”, the “soluble on expression in E. coli” value was “not soluble”. In the case of “SNAMHSDALSWGHGPRLFEVFLEPTCPFSVKAFFKLDDLLAQAGEDNVTVRIRLQSQPWHMFSGVIVRCILAAATLEGGKESAKAVMTAVASHREEFEFEHHAGGPNLDATPNDIIARIERYSGLALAEAFANPELEHAVKWHTKYARQNGIHVSPTFMINGLVQPGMSSGDPVSKWVSDIG”, the “soluble on expression in E. coli” value was “soluble”.

From the DeepSol protein solubility set
